Experimental data from patent CN108101970A.

Target: 抗Cry1Ab单克隆抗体
Experiment: indirect competitive ELISA (chemiluminescence), anti-Cry1Ab mAb coated at 10 μg/mL; competitor: Cry1Ab mimic nanobody (phage 1.0×10^11 pfu or protein 10 μg/mL)

Substance Cry1Ab标准品 (from UniProt P0A370 29-607) has an IC50 of 0.0427 µg/mL.
